The subject of this data set is C/EBPβ (endogenous, HaCaT nuclear extract). Kind of data set: EMSA. The conditions noted are these: 10 mM Tris-HCl pH 7.5, 50 mM NaCl, 1 mM EDTA, 15% glycerol, 1 mg/ml BSA, 25 µg/ml poly(dI-dC), 11.5 mM DTT, 26 µg/ml aprotinin, 1.5 mM PMSF, 0.5 mg/ml salmon …; scale: % of pLXSN control, normalized to C/EBPβ level. On the technique in general: In EMSA bound probe runs differently from free probe, usually more slowly.

Regarding CCL20 promoter nt 734-748, the binding signal is < 50.

These data come from PMC3406103.
